Measurements published in PMC3156093.

Target: EcoRV restriction endonuclease (UniProt P04390 1-245)
Assay: competition

Chain of EcoRV restriction endonuclease (P04390 whole entry): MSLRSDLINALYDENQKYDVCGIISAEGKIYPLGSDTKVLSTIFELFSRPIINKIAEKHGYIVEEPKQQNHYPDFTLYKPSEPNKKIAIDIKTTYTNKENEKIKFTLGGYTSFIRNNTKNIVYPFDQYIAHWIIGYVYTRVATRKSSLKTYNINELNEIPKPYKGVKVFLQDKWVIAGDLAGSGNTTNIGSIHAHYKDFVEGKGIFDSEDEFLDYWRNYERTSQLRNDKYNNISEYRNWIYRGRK

B1: 30 bp specific site oligonucleotide (dsDNA)
DNA 1: CGGGCCTCTTGCGGGATATCGTCCATTCCG
DNA 2: CGGAATGGACGATATCCCGCAAGAGGCCCG
Q: B1 was tested. Which binding signal did it give?
A: The binding signal was < 9 % N1 complex remaining at 30-fold excess competitor.
